In publication doi:10.1101/2022.09.22.509047, “Deciphering bacteriophage T5 host recognition mechanism and infection trigger” (bioRxiv, 2022):

Target: T1, E. coli iron ferrichrome transporter FhuA (E. coli, UniProt P06971 34-747)
T1 construct: FhuA, outer-membrane iron-ferrichrome transporter of E. coli; His-tag inserted in extracellular loop L5 after residue 405 (9 residues, not counted in the numbering); residues 1-17 disordered in the map; Lipopolysaccharide copurifies with FhuA; Purification is as in Flayhan et al, 2012; source: E. coli AW740, plasmid-encoded, grown with 100 µM dipyridine, purified; not shown: His6, internal (after …)
T1 sequence (looked up): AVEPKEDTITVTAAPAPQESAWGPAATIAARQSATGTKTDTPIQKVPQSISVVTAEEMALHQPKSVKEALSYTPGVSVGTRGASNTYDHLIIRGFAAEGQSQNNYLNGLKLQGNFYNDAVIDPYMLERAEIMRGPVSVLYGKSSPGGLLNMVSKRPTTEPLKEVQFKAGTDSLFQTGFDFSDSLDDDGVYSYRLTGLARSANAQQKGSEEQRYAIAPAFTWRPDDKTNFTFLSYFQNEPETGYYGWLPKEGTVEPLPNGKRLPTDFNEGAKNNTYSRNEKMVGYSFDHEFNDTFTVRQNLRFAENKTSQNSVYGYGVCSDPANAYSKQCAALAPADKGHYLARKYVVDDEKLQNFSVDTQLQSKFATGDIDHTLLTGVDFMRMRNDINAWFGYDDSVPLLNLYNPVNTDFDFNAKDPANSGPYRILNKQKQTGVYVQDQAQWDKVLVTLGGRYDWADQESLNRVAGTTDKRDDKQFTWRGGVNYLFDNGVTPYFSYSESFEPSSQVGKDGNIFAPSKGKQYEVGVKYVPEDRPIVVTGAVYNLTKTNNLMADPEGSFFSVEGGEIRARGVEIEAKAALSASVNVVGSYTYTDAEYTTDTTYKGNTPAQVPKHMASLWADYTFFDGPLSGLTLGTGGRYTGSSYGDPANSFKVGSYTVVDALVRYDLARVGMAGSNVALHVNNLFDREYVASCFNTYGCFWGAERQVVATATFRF
Assay: cryo-EM structure; FhuA-RBPpb5 complex formed from equimolar amounts of the two purified proteins; 20 mM Tris, 1.6% C10DAO, 4.3 mg/mL; 2.6 Å average resolution
Conditions: both partners purified

B1: bacteriophage T5 Receptor Binding Protein pb5 (natural protein)
chain: MSFFAGKLNNKSILSLRRGSGGDTNQHINPDSQTIFHSDMSHVIITETHSTGLRLDQGAGDYYWSEMPSRVTQLHNNDPNRVVLTEIEFSDGSRHMLSGMSMGVGAKAYGIINPQIMSQGGLKTQITASADLSLDVGYFNTGTSGTIPQKLRDGTGCQHMFGAFSGRRGFASSAMYLGGAALYKSAWSGSGYVVADAGTLTIPSDYVRHPGARNFGFNAIYVRGRSCNRVLYGMEGPNYTTGGAVQGASSSGALNFTYNPSNPESPKYSVGFARADPTNYAYWESMGDPNDSANGPIGIYSEHLGIYPSKITWYVTNLVYNGSGYNIDGGLFNGNDIKLSPREFIIKGVNVNNTSWKFINFIEKNFNVGNRADFRDVGCNLSKDSPSTGISGIATFGLPTTESNNAPSIKGGNVGGLHANVVSIYNFLPSASWYVSSNPPKIGNNYGDVWSENLLPLRLLGGSGSTILSGNIVFQGNGSVHVGTVGLDLNSSRNGAIVCTMEFIDDTWLSAGGIGCFNPTEMLSQGAEYGDSRFRIGGNTINKKLHQILSLPAGEYVPFFTIKGTVVNACKLQAAAYNPTPYWVSGLPGSVGQTGYYTLTYYMRNDGNNNISIWLDSSMSNIIGMKACLPNIKLIIQRLT
notes: 640 residues; residues 1-37, 333-352, 365-371 and 427-455 not traced in the map; In the functional rows pb5 stands on the phage T5 tail tip (T5st0), untagged; also called RBPpb5; source: E. coli BL21(DE3), pET-28 vector, 20 °C without induction, purified; not shown: His tag, C-terminal, kept
binding result: binds
